{
  "source": "paper PMC12095755",
  "about": "(Nature Communications, 2025)",
  "biological_target": "human MDM2 (Homo sapiens, UniProt Q00987)",
  "sequence (Q00987 whole entry)": "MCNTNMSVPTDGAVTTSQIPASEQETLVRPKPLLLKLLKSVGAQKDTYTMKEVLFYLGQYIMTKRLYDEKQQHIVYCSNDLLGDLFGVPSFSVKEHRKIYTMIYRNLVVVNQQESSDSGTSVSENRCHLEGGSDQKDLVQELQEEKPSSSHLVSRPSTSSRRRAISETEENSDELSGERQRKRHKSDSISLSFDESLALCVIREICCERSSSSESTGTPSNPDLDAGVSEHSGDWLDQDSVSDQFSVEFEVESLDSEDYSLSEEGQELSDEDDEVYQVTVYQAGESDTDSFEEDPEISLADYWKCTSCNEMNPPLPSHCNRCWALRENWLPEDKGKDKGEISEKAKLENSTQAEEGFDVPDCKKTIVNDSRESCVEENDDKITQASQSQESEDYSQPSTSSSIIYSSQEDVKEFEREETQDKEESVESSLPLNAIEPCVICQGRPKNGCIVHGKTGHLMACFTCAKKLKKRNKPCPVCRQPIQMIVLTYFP",
  "assay": "MDM2 AlphaLISA competition assay",
  "type": "binding",
  "conditions": "up to 50 µM",
  "data": [
    {"substance": "F-S-D-L-W (FSDLW) [p53 motif]", "values": [
      {"measurement": "activity in the AlphaLISA assay", "result": "no activity"}
    ]}
  ]
}
